Experimental data taken from US20100204100A1, “BIOLOGICAL AGENTS ACTIVE IN CENTRAL NERVOUS SYSTEM” (THE JOHNS HOPKINS UNIVERISTY, priority 2007, published 2010).
Where a chain is given by its changes, count along the chain named. Names may count otherwise. “Also recorded” adds a separate entry of the source.

B1: PSD-95 PDZ2: Control peptide containing the same sequences as Tat-PSD-95 PDZ2 but without Tat PTD (protein)
chain: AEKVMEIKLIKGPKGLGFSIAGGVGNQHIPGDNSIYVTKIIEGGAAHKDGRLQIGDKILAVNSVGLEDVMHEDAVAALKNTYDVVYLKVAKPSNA
B2: Tat-PSD-95 PDZ2: His-tagged fusion peptide: HIV Tat minimal transduction domain (residues 47-57) fused to the second PDZ domain of PSD-95 (protein)
chain: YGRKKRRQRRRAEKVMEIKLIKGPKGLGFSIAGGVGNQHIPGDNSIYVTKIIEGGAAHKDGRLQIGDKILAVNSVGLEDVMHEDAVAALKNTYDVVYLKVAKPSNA
B3: mutated Tat-PSD-95 PDZ2: Control fusion peptide: Tat-PSD-95 PDZ2 with three sites critical for NMDAR/PSD-95 interaction mutated (K165T, L170R and H182L) (protein)
chain: B2 chain with K22T, L27R, H39L

Columns and labels:
[1] = tested on: CFA-induced inflammatory pain behaviors; assay: CFA-induced inflammatory pain behaviors, paw withdrawal threshold (von Frey filaments); type: in vivo, mouse; settings: vs vehicle
Procedure: Intrathecal Injection of Tat Fusion Peptides. Intrathecal injection was performed in unanesthetized mice as previously described (Hylden and Wilcox, 1980; Tao, et al., 2003b; Tao, et al., 2004). In brief, the mouse was held firmly by the pelvic girdle in one hand, while a 10-μl Luer tip syringe with a 30 gauge 0.5-inch needle was held in the other hand at an angle of about 20° above the vertebral column. The needle was inserted into the tissue to one side of the L5 or L6 spinous process so that it slipped into the groove between the spinous and transverse processes. The needle was then moved carefully forward to the intervertebral space as the angle of the syringe was decreased to about 10°. […] The injection volume was 5 μl. The mice, assigned randomly to the experimental groups of 6-8, were given intrathecally Tat-PSD-95 PDZ2 or control peptide (mutated Tat-PSD-95 PDZ2 or PSD-95 PDZ2 without Tat PTD) 30 min before behavioral testing. Behavioral Analysis. Mechanical sensitivity of the mice was measured with von Frey filaments (Stoelting, Wood Dale, Ill.) as described previously (Yang and Gereau, 2003). Mice were placed in Plexiglas testing boxes with a 1×1 cm^2 wire-mesh grid floor and habituated for 3 h before experiments. Each von Frey filament was applied to the mouse hind paw in ascending order until it bent at approximately 30° for about 3 s. The smallest filament that evoked a paw withdrawal response was taken as the mechanical threshold (paw withdrawal threshold). Similar sites were selected for measuring mechanical thresholds in all tested animals, and the thresholds were measured at approximately the same site throughout the experiment for each individual animal. Two to three measurements were made before CFA or fusion peptides injection, and the average was calculated as the baseline. Established inflammatory pain behaviors were induced by intraplantar injection of CFA solution (20 μl, 1 mg/ml). To observe the effect of Tat-PSD-95 PDZ2 on the development of CFA-induced established inflammatory pain, the mice were given intraperitoneally Tat-PSD-95 PDZ2 or control peptide (mutated Tat-PSD-95 PDZ2 or PSD-95 PDZ2 without Tat) 2 h before CFA injection or intrathecally these peptides 1.5 h after CFA injection (development protocol); on the other hand, to observe the effect of Tat-PSD-95 PDZ2 on the maintenance of CFA-induced established inflammatory pain, the mice were given intraperitoneally these peptides 20 h after CFA injection or intrathecally these peptides 23.5 h after CFA injection (maintenance protocol). Behavioral measurements were conducted 2 h after CFA injection for the “development protocol” and 24 h after CFA injection for the “maintenance protocol”. The effect of Tat fusion peptide on CFA-induced established inflammatory pain behaviors was expressed as % of baseline.

[2] = Baseline paw withdrawal threshold after peptide injection; type: in vivo, mouse; settings: mice without CFA, vs vehicle
Procedure: Behavioral Analysis. Mechanical sensitivity of the mice was measured with von Frey filaments (Stoelting, Wood Dale, Ill.) as described previously (Yang and Gereau, 2003). Mice were placed in Plexiglas testing boxes with a 1×1 cm^2 wire-mesh grid floor and habituated for 3 h before experiments. Each von Frey filament was applied to the mouse hind paw in ascending order until it bent at approximately 30° for about 3 s. The smallest filament that evoked a paw withdrawal response was taken as the mechanical threshold (paw withdrawal threshold). Similar sites were selected for measuring mechanical thresholds in all tested animals, and the thresholds were measured at approximately the same site throughout the experiment for each individual animal. Two to three measurements were made before CFA or fusion peptides injection, and the average was calculated as the baseline. Established inflammatory pain behaviors were induced by intraplantar injection of CFA solution (20 μl, 1 mg/ml). […] The effect of Tat fusion peptide on CFA-induced established inflammatory pain behaviors was expressed as % of baseline.

[3] = target: T1, interactions between NMDA receptor NR2B and PSD-95 protein (Mus musculus, UniProt Q01097); assay: In vitro binding assay (GST pull-down) with GST-PSD-95 PDZ1,2 and spinal membrane fraction; settings: for effect on interactions between GST-PSD-95 PDZ1,2 and NR2B (amount of NR2B pulled down): preincubation with different doses of peptide, 30 min; for effect on interactions between NMDAR NR2 subunits and PSD-95: summary of GST pull-down and co-immunoprecipitation (FIG. 2)
T1 construct: from tissue; host or cells: NR2B: solubilized membrane fraction of mouse spinal lumbar enlargement
Procedure: In Vitro and In Vivo Binding Assays. […] Membrane-bound proteins from the spinal lumbar enlargement segments were extracted as described previously (Tao, et al., 2003a). For in vitro binding experiments (GST pull-down), the solubilized membrane fraction and GST fusion peptide were first preincubated with different concentrations of Tat-PSD-95 PDZ2 at room temperature for 30 min. Then the membrane fraction was mixed with the GST fusion peptide at room temperature for 1 h. The resin was washed five times with washing buffer (PBS plus 500 mM NaCl and 0.1% Triton X-100) and then boiled in 1×SDS-PAGE sample buffer to elute the bound proteins. After being separated by electrophoresis, the proteins were detected by immunoblotting with anti-GST antibody (Santa Cruz Biotechnology, Santa Cruz, Calif.) and anti-NR2B antibody (Upstate Biotechnology, Lake Placid, N.Y.). For in vivo binding experiments (co-immunoprecipitation), 5 μg of the affinity-purified rabbit NR2A/2B antibody (Chemicon, Temecula, Calif.) was incubated with 100 μl of protein A-Sepharose slurry for 1 h, and the complex was spun down at 2000 rpm for 4 min. The solubilized membrane fraction (500 μg) from the different groups of treated mice as mentioned-above then was added to the Sepharose beads, and the mixture was incubated for 2-3 h at 4° C. The mixture was washed once with 1% Triton X-100 in immunoprecipitation buffer [containing (in mM): 137 sodium chloride, 2.7 potassium chloride, 4.3 disodium hydrogen phosphate, 1.4 potassium dihydrogen phosphate, 5 ethylene glycol tetraacetic acid, 1 sodium vanadate, 10 sodium pyrophosphate, 50 sodium fluoride, 0.1 phenylmethylsulfonyl fluoride, and 20 U/ml Trasylol], twice with 1% Triton X-100 in immunoprecipitation buffer plus 300 mM sodium chloride, and three times with immunoprecipitation buffer. The proteins were separated by SDS-PAGE and detected by NR2A/2B or PSD-95 antibody (Upstate Biotechnology, Lake Placid, N.Y.). As a positive control (input), 50 μg of the solubilized membrane fraction was loaded onto the gel.

[4] = intraperitoneal, Tat-PSD-95 PDZ2 2, 4, 8 mg/kg, control peptides 8 mg/kg, development and maintenance phases
[5] = intrathecal, Tat-PSD-95 PDZ2 2.5, 5, 10 μg/5 μl, control peptides 10 μg/5 μl

T1 sequence (Q01097 27-1482, other chains not shown): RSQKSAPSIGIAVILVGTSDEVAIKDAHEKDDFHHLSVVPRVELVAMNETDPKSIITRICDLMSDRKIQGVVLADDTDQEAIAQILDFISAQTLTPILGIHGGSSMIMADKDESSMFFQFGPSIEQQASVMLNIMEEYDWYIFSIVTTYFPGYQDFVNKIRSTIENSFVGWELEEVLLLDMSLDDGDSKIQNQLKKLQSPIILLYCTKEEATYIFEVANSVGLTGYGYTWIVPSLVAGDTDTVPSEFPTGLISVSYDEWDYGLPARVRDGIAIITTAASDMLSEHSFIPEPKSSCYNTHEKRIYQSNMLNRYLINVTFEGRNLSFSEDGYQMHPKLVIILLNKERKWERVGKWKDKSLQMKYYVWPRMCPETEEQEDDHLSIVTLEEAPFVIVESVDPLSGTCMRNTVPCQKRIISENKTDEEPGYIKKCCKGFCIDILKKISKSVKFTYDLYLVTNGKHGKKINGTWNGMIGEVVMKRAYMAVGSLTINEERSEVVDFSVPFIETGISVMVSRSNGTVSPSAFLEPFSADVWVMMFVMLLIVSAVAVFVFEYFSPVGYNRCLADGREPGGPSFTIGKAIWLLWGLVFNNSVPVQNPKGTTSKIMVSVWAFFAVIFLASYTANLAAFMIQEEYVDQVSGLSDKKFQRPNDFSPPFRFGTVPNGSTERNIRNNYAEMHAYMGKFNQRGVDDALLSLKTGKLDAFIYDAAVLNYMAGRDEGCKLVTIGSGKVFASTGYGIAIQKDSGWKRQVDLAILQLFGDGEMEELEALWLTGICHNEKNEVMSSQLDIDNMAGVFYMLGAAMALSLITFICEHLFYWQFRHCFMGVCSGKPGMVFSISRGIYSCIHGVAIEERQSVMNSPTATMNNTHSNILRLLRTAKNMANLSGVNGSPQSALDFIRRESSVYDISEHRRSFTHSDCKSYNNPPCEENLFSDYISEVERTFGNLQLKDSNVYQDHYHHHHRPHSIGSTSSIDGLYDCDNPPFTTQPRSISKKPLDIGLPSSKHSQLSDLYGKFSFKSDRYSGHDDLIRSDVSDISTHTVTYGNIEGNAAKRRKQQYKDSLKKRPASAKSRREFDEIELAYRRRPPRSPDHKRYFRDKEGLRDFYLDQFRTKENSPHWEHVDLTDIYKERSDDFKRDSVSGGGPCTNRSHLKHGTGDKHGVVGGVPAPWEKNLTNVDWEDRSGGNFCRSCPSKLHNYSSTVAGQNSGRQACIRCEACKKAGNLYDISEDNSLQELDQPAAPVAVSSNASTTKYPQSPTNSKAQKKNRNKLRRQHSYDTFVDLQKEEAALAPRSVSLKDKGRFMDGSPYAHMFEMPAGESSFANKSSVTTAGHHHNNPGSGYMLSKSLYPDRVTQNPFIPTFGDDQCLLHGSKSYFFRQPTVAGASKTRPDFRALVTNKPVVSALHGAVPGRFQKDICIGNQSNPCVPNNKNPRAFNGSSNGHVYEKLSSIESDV

Row | Molecule | effect on CFA-induced decrease of paw withdrawal threshold, ipsilateral side [1, 4] | effect on CFA-induced decrease of paw withdrawal threshold, ipsilateral side [1, 5] | effect on baseline paw withdrawal threshold [2] | effect on NR2B being pulled down at high dose ([3]; 16 μg peptide) | effect on interactions between GST-PSD-95 PDZ1,2 and NR2B (amount of NR2B pulled down) [3] | effect on interactions between NMDAR NR2 subunits and PSD-95 [3]
1 | B1 | no effect | no effect |  |  |  | 
2 | B2 | significantly inhibited; also recorded: dose-dependently inhibited | significantly inhibited; also recorded: dose-dependently inhibited | no significant effect | completely prevented | dose-dependently inhibited; also recorded: dose-dependently reduced | markedly disrupted
3 | B3 | no effect | no effect |  |  | no effect | no effect
